Measurements as given in the supplement of paper PMC9732359.
± gives the uncertainty stated by the source.

Assay: protein stability index of a GFP-peptide fusion (yeast GPS) (PSI 1-4); higher = more stable; sorted into four equal gates, so the index is relative within each strain
Outline: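 Sequencing reads from sorted gates were used to score each peptide. The library consisted of tiled 17-residue yeast protein peptides fused downstream of GFP on a Cherry-expressing plasmid, pooled and carried in yeast. Mid-log cultures in leucine-free medium were split into four equal gates by GFP/Cherry ratio, and each gate's plasmids were PCR-amplified and Illumina-sequenced. The protein stability index adds up, over all gates, the read frequency multiplied by the gate number.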

Sequence	protein stability index (doa10∆)	protein stability index (pdr5∆)	protein stability index (san1∆)	protein stability index (ubr1∆)
TSFDRTKKTITPMGGFV [RPL3]	3.04 ± 0.12	3.03 ± 0.12	2.79 ± 0.089	3.21 ± 0.24
RSAWNNNNDNDANRNAN [GRR1]	2.55 ± 0.041	2.65 ± 0.036	2.62 ± 0.034	2.7 ± 0.039
NSSRFSDPMLQRTATLC [YCS4]	2.81 ± 0.12	2.98 ± 0.093	3.21 ± 0.093	3.02 ± 0.078
ATLKEIKSIIEQRKQKL [SMC3]	2.89 ± 0.087	3.16 ± 0.08	3.16 ± 0.046	3.04 ± 0.052
IFLHSLPVKEFQIIDTL [RPS2]	2.49 ± 0.12	2.54 ± 0.089	2.44 ± 0.073	2.49 ± 0.061
DADTEDPHSASLINSHL [RPC82]	2.9 ± 0.084	3.27 ± 0.085	2.97 ± 0.078	3 ± 0.13
KVKHDSQPFIKFLNFRP [SSN2]	2.88 ± 0.06	2.6 ± 0.063	2.49 ± 0.079	2.63 ± 0.041
IDNSPQAISYLHKLQRM [GRR1]	2.96 ± 0.058	2.48 ± 0.047	2.4 ± 0.045	2.69 ± 0.039
SSNPLGITGNLDRIPMH [COB]	2.62 ± 0.098	2.52 ± 0.077	2.44 ± 0.065	2.49 ± 0.094
SDGIVLAAERKVTSTLL [PRE9]	2.39 ± 0.1	1.58 ± 0.065	–	1.85 ± 0.075
ILYYDVLFITPDIVGHE [BRR2]	2.29 ± 0.058	2.49 ± 0.052	2.61 ± 0.053	2.84 ± 0.057
MAQRVTFRRRNPYNTRS [RPL34A]	1.55 ± 0.043	1.82 ± 0.047	1.54 ± 0.072	1.77 ± 0.043
SGDESNVISSKDWELEA [YDL116W/NUP84]	3.45 ± 0.08	3.36 ± 0.052	3.45 ± 0.06	3.41 ± 0.066
YDDEQNTSAQHVESDKI [IRR1]	3.25 ± 0.094	3.04 ± 0.053	3.06 ± 0.065	3.27 ± 0.057
FLKLVLSESPVDFEKFE [SIN4]	2.58 ± 0.047	2.69 ± 0.069	2.66 ± 0.07	2.7 ± 0.067
KELKEKEAAESPEEADV [PUP2]	3.44 ± 0.082	3.56 ± 0.086	3.02 ± 0.057	3.32 ± 0.054
TRPISSQVLDLAKKIAP [SMC2]	2.72 ± 0.15	2.44 ± 0.097	2.59 ± 0.28	1.95 ± 0.14
LKLCVQELEKRMPMDFK [PRE1]	3.15 ± 0.19	3.34 ± 0.099	3.18 ± 0.054	3.37 ± 0.085
SLNLQYVNYEISTAKAW [YML103C/NUP188]	2.6 ± 0.055	2.93 ± 0.082	2.55 ± 0.074	2.69 ± 0.058
ENAYKSENAPSASSKEF [YAR002W/NUP60]	2.18 ± 0.066	1.86 ± 0.062	2.15 ± 0.078	2.15 ± 0.074
LVETCLNDLVESSFIEI [BRR2]	3.03 ± 0.053	2.75 ± 0.063	2.69 ± 0.085	2.46 ± 0.054
QVFSVKDSTAGKKVFET [YJR042W/NUP85]	–	–	3.09 ± 0.2	–
PNHNSPVVINLDAKNKV [RPO31]	2.92 ± 0.16	3.08 ± 0.19	–	3.03 ± 0.24
VNCFHEDTELYQELIKN [YJL039C/NUP192]	2.13 ± 0.12	2.82 ± 0.16	2.83 ± 0.081	2.67 ± 0.056
NISKSRAKPVTNSSILL [RRP6]	2.14 ± 0.063	2.23 ± 0.065	2.23 ± 0.1	2.38 ± 0.097
VEIEKRILKLGTQLATL [YGR119C/NUP57]	2.11 ± 0.23	1.22 ± 0.14	1.94 ± 0.18	1.4 ± 0.066
DHSWFLLIGCKLDQDDE [CSI1]	1.54 ± 0.11	1.95 ± 0.096	3.03 ± 0.12	2.34 ± 0.064

Sequence	protein stability index (doa10∆)	protein stability index (pdr5∆)	protein stability index (san1∆)	protein stability index (ubr1∆)
ELENSSPELKAELRPLQ [RPS7A]	3.04 ± 0.24	3.53 ± 0.11	2.97 ± 0.15	3.64 ± 0.15
SDFISKLEYPHTDVSSS [RPN3]	2.56 ± 0.047	2.88 ± 0.054	2.82 ± 0.047	2.5 ± 0.045
SSLNLEDTPANDSSATR [RPB8]	2.92 ± 0.067	2.85 ± 0.065	2.68 ± 0.063	3.08 ± 0.048
QIFCVFSGKGVHKLRHY [GRR1]	2.67 ± 0.068	2.88 ± 0.061	3.09 ± 0.066	2.76 ± 0.053
EILVTELTAQGYDPALL [RPN2]	2.8 ± 0.27	3.36 ± 0.15	–	3.28 ± 0.1
AAPAGVAGGVAGGEAGE [RPP1A]	1.91 ± 0.16	1.8 ± 0.18	1.66 ± 0.28	–
NQLLAALVAYTPTDVIG [RRP6]	1.66 ± 0.045	1.39 ± 0.048	1.25 ± 0.072	1.24 ± 0.032
TIHAKRKIVFRCSECIK [RPN4]	2.39 ± 0.056	2.73 ± 0.066	2.15 ± 0.11	2.59 ± 0.056
GAIAYNQFKRIDTLLYL [RET1]	1.4 ± 0.1	1.42 ± 0.1	1.48 ± 0.14	1.54 ± 0.066
KEPRLVIVTDPRSDAQA [RPS0A]	2.56 ± 0.14	3.06 ± 0.087	2.94 ± 0.064	3.05 ± 0.1
QFVPELKEFTAKLRKEL [FAS2]	1.53 ± 0.061	1.61 ± 0.043	1.53 ± 0.1	1.57 ± 0.026
LQLASLQQKQRDLILKK [SMC3]	2.49 ± 0.14	2.46 ± 0.16	3.1 ± 0.097	2.68 ± 0.13
KSLESQRYVKSVKSVKF [RPC34]	1.26 ± 0.081	1.61 ± 0.058	2.16 ± 0.098	1.55 ± 0.084
LDPALLRPGRIDRKVEF [RPT1]	–	3.07 ± 0.28	3.34 ± 0.068	–
APKWYPSEDVAAPKKTR [RPL6B]	2.13 ± 0.093	2.09 ± 0.065	1.87 ± 0.092	1.98 ± 0.1
VGEEETSQKMKKMVYVL [SRP54]	3.31 ± 0.11	3.38 ± 0.11	3.31 ± 0.078	3.17 ± 0.077
MAAEKILTPESQLKKSK [RPL7A]	3.07 ± 0.11	3.28 ± 0.28	3.25 ± 0.2	–
SSDELKVIEEQLKHTKL [SMC4]	3.27 ± 0.061	3.3 ± 0.077	3.04 ± 0.067	3.25 ± 0.058
ANLPANSSTSPAPSIPS [YLR335W/NUP2]	2.94 ± 0.037	3.1 ± 0.037	2.95 ± 0.03	2.856 ± 0.027
MNAILTDVKLTLPQPRL [SMD1]	2.98 ± 0.079	2.96 ± 0.097	2.65 ± 0.079	3.11 ± 0.076
MEELGIVTPVEKAVEEK [RPT3]	–	1.11 ± 0.094	–	1.47 ± 0.17
LSESLTKFFDDAKSTPL [RPN9]	3.01 ± 0.07	3.26 ± 0.069	3.18 ± 0.055	3.12 ± 0.068
KKKRSRTSATREDTPLS [ISW2]	3.51 ± 0.16	3.37 ± 0.083	3.45 ± 0.058	3.22 ± 0.13
PILVTLVSDSEIIDLNL [POP6]	2.29 ± 0.058	2.47 ± 0.046	2.36 ± 0.074	2.74 ± 0.054
INVLTDQNPIQVVVDAI [RPS5]	2.19 ± 0.044	2.59 ± 0.038	2.44 ± 0.055	2.05 ± 0.031
HTATDIYQTLIALNLDT [SNF2]	2.11 ± 0.032	2.36 ± 0.034	1.88 ± 0.046	1.93 ± 0.024
GNNKDLKNTMQYLTNFS [RPB4]	3.16 ± 0.08	3.02 ± 0.072	3.02 ± 0.075	3.13 ± 0.061
